# Test results taken from patent US20060073133A1 (published 2006).
# B1: monoclonal antibody 12B1 (antibody, IgG2a, V domains shown)
# VH: QIQLQQSGPELVKPGASVKVSCKASGYSFTDYNIYWVKQSHGKSLEWIGYIDPYNDDTGYNQKFKGKATLTVDKSSSTAFMHLNSLTSEDSAVYYCASEGIHWGQGTLVTVS
# VL: DIVMTQSQKFMSTSVGDRVSVTCKASQNVGTNVAWFQQKPGQSPKALIYSASYRYNGVPDRFTGSGSGTDFTLTISNVQSEDLADYFCQQYNIYPYTFGGGTKLEIK
# notes: also called mAb 12B1; SAF-3 mAb (clone 12B1)
# Tests used:
# [1] = target: human sialoadhesin factor-3 (SAF-3), on cells (human) (UniProt Q9Y286); assay: flow cytometry on monocyte-derived DCs cultured 7 days with mAb 12B1
# Sequence of human sialoadhesin factor-3 (SAF-3), on cells (human) (Q9Y286 19-467 L192P/I393V limits assumed): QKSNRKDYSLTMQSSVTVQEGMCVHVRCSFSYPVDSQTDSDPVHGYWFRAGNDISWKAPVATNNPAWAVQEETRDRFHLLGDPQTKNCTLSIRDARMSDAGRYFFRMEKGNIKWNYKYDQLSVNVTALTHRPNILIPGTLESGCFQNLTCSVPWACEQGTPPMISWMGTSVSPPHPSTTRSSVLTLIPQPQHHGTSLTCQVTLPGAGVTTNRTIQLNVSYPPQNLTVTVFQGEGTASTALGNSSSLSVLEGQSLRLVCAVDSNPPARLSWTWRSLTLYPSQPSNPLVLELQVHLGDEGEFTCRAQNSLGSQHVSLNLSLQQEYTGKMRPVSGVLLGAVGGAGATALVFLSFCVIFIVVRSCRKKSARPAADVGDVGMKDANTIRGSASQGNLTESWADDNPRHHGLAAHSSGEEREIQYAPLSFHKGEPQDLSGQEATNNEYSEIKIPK
# SAF-2 = SAF-2 (UniProt Q9NYZ4 17-363, limits assumed); assay: displacement immunoassay
# Sequence of SAF-2 (Q9NYZ4 17-363 limits assumed): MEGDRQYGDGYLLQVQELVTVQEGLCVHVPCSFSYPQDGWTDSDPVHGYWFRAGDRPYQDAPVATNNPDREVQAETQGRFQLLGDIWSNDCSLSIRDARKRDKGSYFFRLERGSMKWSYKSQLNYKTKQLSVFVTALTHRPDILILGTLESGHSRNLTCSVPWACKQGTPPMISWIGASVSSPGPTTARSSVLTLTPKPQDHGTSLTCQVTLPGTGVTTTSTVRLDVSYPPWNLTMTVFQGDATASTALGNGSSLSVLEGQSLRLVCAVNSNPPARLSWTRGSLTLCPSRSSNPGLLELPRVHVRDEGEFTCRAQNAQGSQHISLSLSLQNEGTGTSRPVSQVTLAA
molecule,measurement,setting,value
Isotype Control (antibody),Mean Fluorescent Intensity,[1],3.5 MFI
B1,binding result,SAF-2,no binding (tested: max. displacement 5%)
